In article PMC3763809:

Biological target: nucleosome containing the H3(1-132)-QFI chimera (Drosophila | budding yeast), P02299
Experiment: ITC

Kd: 300 nM
Binder: GLRKSTRVKVAPLQYWRNEKIVY (domain or fragment, modifications not checked) [budding yeast CENP-C motif]
